Data: patent US20190263889A1
Values joined by “and” are separate entries in the source; they are usually repeats but may differ in a detail not shown here. Identical values can stand only once.

How the values were obtained:
[1] = biological target: CTLA-4Fc mutant protein M10 (human (murine residues substituted)); test: ELISA; binder 10 ng/ml on coated target
[2] = biological target: CTLA-4Fc mutant protein M11 (human (murine residues substituted)); test: ELISA; binder 10 ng/ml on coated target
Sequence of CTLA-4Fc mutant protein M11 (human (murine residues substituted)) (chain, as listed by the source mutant): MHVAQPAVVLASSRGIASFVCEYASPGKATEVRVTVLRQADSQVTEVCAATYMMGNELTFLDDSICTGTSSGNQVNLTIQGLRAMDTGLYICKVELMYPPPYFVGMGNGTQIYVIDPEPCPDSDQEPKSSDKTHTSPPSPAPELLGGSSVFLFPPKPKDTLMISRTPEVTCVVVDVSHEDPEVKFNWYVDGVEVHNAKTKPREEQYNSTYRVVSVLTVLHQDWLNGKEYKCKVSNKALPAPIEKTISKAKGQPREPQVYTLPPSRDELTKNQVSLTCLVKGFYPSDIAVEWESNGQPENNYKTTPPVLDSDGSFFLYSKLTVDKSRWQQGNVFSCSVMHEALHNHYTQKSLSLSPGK

[3] = biological target: CTLA-4Fc mutant protein M2 (human (murine residues substituted)); test: ELISA; binder 10 ng/ml on coated target
Sequence of CTLA-4Fc mutant protein M2 (human (murine residues substituted)) (chain, as listed by the source mutant): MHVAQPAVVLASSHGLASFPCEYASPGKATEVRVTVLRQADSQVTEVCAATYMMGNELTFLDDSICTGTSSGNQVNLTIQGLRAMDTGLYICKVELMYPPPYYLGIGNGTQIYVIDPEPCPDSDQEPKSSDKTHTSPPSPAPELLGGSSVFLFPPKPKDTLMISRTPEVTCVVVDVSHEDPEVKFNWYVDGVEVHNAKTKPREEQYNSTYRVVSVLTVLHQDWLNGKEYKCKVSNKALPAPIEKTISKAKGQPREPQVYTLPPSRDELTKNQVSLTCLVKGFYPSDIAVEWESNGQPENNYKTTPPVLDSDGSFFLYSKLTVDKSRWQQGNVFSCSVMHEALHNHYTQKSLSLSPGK

[4] = biological target: CTLA-4Fc mutant protein M4 (human (murine residues substituted)); test: ELISA; binder 10 ng/ml on coated target
Sequence of CTLA-4Fc mutant protein M4 (human (murine residues substituted)) (chain, as listed by the source mutant): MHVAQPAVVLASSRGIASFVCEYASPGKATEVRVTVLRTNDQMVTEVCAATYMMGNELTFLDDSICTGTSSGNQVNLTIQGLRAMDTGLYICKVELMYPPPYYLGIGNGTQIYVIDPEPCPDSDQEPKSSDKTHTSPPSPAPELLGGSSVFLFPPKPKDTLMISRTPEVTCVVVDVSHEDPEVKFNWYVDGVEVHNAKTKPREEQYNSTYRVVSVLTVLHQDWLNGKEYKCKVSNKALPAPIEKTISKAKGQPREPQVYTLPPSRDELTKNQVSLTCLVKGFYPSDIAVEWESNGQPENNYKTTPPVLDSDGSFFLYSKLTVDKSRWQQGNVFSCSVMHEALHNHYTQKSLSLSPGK

[5] = biological target: CTLA-4Fc mutant protein M8 (human (murine residues substituted)); test: ELISA; binder 10 ng/ml on coated target
Sequence of CTLA-4Fc mutant protein M8 (human (murine residues substituted)) (chain, as listed by the source mutant): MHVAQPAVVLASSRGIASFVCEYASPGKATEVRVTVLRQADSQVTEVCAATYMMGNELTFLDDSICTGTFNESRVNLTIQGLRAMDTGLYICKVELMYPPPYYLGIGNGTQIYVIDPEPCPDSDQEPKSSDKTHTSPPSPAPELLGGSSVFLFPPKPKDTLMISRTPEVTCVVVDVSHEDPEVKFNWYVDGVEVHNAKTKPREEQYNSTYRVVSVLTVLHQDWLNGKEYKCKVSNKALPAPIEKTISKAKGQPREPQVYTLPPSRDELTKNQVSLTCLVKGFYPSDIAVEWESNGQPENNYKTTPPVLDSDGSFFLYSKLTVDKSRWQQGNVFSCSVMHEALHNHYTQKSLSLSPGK

[6] = biological target: CTLA-4Fc mutant protein M9 (human (murine residues substituted)); test: ELISA; binder 10 ng/ml on coated target
Sequence of CTLA-4Fc mutant protein M9 (human (murine residues substituted)) (chain, as listed by the source mutant): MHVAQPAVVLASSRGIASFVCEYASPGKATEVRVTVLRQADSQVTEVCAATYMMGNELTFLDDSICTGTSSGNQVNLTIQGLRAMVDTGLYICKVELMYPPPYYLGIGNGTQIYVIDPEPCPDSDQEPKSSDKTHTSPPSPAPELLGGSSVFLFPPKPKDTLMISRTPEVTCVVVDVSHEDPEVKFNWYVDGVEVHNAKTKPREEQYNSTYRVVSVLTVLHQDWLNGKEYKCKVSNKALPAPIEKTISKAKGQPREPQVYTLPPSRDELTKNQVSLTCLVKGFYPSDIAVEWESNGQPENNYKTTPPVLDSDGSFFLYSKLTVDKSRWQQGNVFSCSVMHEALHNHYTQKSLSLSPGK

[7] = biological target: wild type human CTLA-4Fc fusion protein (abatacept) (human); test: ELISA; binder 10 ng/ml on coated target
Sequence of wild type human CTLA-4Fc fusion protein (abatacept) (human) (chain, as listed by the source limits assumed): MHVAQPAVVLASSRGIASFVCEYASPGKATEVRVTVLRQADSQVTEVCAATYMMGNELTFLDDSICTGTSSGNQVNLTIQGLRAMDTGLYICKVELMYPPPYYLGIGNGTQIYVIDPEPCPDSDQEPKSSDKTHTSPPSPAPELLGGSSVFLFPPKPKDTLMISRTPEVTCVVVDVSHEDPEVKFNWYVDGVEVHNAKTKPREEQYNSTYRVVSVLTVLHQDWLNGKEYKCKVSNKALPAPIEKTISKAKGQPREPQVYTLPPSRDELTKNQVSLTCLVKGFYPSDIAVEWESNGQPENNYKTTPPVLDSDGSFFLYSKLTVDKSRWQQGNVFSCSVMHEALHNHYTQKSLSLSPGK

[8] = biological target: CTLA-4Fc mutant protein M1 (human (murine residues substituted)); test: ELISA; binder 10 ng/ml on coated target
Sequence of CTLA-4Fc mutant protein M1 (human (murine residues substituted)) (chain, as listed by the source mutant): as the sequence (chain, as listed by the source limits assumed) above, with M1I, H2Q, A4T, A7S counted along it

[9] = biological target: CTLA-4Fc mutant protein M10 (human (murine residues substituted)); test: ELISA; binder 10 ng/ml on coated target; remark: listed apart in the source
[10] = biological target: CTLA-4Fc mutant protein M11 (human (murine residues substituted)); test: ELISA; binder 10 ng/ml on coated target; remark: listed apart in the source
[11] = biological target: CTLA-4Fc mutant protein M2 (human (murine residues substituted)); test: ELISA; binder 10 ng/ml on coated target; remark: listed apart in the source
[12] = biological target: CTLA-4Fc mutant protein M3 (human (murine residues substituted)); test: ELISA; binder 10 ng/ml on coated target
Sequence of CTLA-4Fc mutant protein M3 (human (murine residues substituted)) (chain, as listed by the source mutant): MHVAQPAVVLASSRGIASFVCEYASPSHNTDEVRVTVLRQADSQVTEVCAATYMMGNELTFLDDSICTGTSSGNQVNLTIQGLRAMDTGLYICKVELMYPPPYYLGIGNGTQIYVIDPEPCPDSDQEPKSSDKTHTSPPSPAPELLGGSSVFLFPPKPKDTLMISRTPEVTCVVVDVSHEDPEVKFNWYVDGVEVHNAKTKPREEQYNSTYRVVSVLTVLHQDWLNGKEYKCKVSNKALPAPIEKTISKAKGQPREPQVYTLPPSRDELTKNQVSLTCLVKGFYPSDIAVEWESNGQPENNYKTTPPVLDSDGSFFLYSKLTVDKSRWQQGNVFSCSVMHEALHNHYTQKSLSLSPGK

[13] = biological target: CTLA-4Fc mutant protein M4 (human (murine residues substituted)); test: ELISA; binder 10 ng/ml on coated target; remark: listed apart in the source
[14] = biological target: CTLA-4Fc mutant protein M5 (human (murine residues substituted)); test: ELISA; binder 10 ng/ml on coated target
Sequence of CTLA-4Fc mutant protein M5 (human (murine residues substituted)) (chain, as listed by the source mutant): as the sequence (chain, as listed by the source limits assumed) above, with Y52F, M53T, M54E, G55K, E57T, L58V, T59G counted along it

[15] = biological target: CTLA-4Fc mutant protein M6 (human (murine residues substituted)); test: ELISA; binder 10 ng/ml on coated target
Sequence of CTLA-4Fc mutant protein M6 (human (murine residues substituted)) (chain, as listed by the source mutant): as the sequence (chain, as listed by the source limits assumed) above, with A50T counted along it

[16] = biological target: CTLA-4Fc mutant protein M7 (human (murine residues substituted)); test: ELISA; binder 10 ng/ml on coated target
Sequence of CTLA-4Fc mutant protein M7 (human (murine residues substituted)) (chain, as listed by the source mutant): as the sequence (chain, as listed by the source limits assumed) above, with D63Y, S64P, I65F, T67S counted along it

[17] = biological target: CTLA-4Fc mutant protein M8 (human (murine residues substituted)); test: ELISA; binder 10 ng/ml on coated target; remark: listed apart in the source
[18] = biological target: CTLA-4Fc mutant protein M9 (human (murine residues substituted)); test: ELISA; binder 10 ng/ml on coated target; remark: listed apart in the source
[19] = biological target: human IgG1-Fc control (human) [IgG part: P01857]; test: ELISA; binder 10 ng/ml on coated target
[20] = biological target: mouse CTLA-4-Fc (mouse) (UniProt P09793); test: ELISA; binder 10 ng/ml on coated target
Sequence of mouse CTLA-4-Fc (mouse) (P09793 36-161 limits assumed): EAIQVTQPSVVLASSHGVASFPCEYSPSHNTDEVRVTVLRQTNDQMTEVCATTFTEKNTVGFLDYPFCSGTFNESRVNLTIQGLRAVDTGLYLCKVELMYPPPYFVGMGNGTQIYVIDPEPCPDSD

[21] = biological target: wild type human CTLA-4Fc fusion protein (abatacept) (human); test: ELISA; binder 10 ng/ml on coated target; remark: listed apart in the source
[22] = biological target: CTLA-4Fc mutant protein M1 (human (murine residues substituted)); test: ELISA; binder 0 (blank) on coated target
[23] = biological target: CTLA-4Fc mutant protein M10 (human (murine residues substituted)); test: ELISA; binder 0 (blank) on coated target
[24] = biological target: CTLA-4Fc mutant protein M2 (human (murine residues substituted)); test: ELISA; binder 0 (blank) on coated target
[25] = biological target: CTLA-4Fc mutant protein M5 (human (murine residues substituted)); test: ELISA; binder 0 (blank) on coated target
[26] = biological target: CTLA-4Fc mutant protein M8 (human (murine residues substituted)); test: ELISA; binder 0 (blank) on coated target
[27] = biological target: CTLA-4Fc mutant protein M9 (human (murine residues substituted)); test: ELISA; binder 0 (blank) on coated target
[28] = biological target: wild type human CTLA-4Fc fusion protein (abatacept) (human); test: ELISA; binder 0 (blank) on coated target
[29] = biological target: CTLA-4Fc mutant protein M1 (human (murine residues substituted)); test: ELISA; binder 1000 ng/ml on coated target
[30] = biological target: CTLA-4Fc mutant protein M10 (human (murine residues substituted)); test: ELISA; binder 1000 ng/ml on coated target
[31] = biological target: CTLA-4Fc mutant protein M11 (human (murine residues substituted)); test: ELISA; binder 1000 ng/ml on coated target
[32] = biological target: CTLA-4Fc mutant protein M2 (human (murine residues substituted)); test: ELISA; binder 1000 ng/ml on coated target
[33] = biological target: CTLA-4Fc mutant protein M3 (human (murine residues substituted)); test: ELISA; binder 1000 ng/ml on coated target
[34] = biological target: CTLA-4Fc mutant protein M4 (human (murine residues substituted)); test: ELISA; binder 1000 ng/ml on coated target
[35] = biological target: CTLA-4Fc mutant protein M5 (human (murine residues substituted)); test: ELISA; binder 1000 ng/ml on coated target
[36] = biological target: CTLA-4Fc mutant protein M6 (human (murine residues substituted)); test: ELISA; binder 1000 ng/ml on coated target
[37] = biological target: CTLA-4Fc mutant protein M7 (human (murine residues substituted)); test: ELISA; binder 1000 ng/ml on coated target
[38] = biological target: CTLA-4Fc mutant protein M8 (human (murine residues substituted)); test: ELISA; binder 1000 ng/ml on coated target
[39] = biological target: CTLA-4Fc mutant protein M9 (human (murine residues substituted)); test: ELISA; binder 1000 ng/ml on coated target
[40] = biological target: human IgG1-Fc control (human) [IgG part: P01857]; test: ELISA; binder 1000 ng/ml on coated target
[41] = biological target: mouse CTLA-4-Fc (mouse) (UniProt P09793); test: ELISA; binder 1000 ng/ml on coated target
[42] = biological target: wild type human CTLA-4Fc fusion protein (abatacept) (human); test: ELISA; binder 1000 ng/ml on coated target
[43] = biological target: human CTLA-4 (form in the blocking assay not stated) (human) (UniProt P16410); test: blocking of B7-CTLA-4 interaction; format not stated, no data shown
Sequence of human CTLA-4 (form in the blocking assay not stated) (human) (P16410 36-223 limits assumed): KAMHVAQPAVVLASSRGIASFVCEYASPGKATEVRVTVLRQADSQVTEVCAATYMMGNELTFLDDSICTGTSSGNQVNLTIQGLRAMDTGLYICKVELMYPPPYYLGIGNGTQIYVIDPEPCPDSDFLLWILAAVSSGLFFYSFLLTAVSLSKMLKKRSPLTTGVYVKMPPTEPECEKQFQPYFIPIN

Sequence of CTLA-4Fc mutant protein M10 (human (murine residues substituted)) (chain, as listed by the source mutant): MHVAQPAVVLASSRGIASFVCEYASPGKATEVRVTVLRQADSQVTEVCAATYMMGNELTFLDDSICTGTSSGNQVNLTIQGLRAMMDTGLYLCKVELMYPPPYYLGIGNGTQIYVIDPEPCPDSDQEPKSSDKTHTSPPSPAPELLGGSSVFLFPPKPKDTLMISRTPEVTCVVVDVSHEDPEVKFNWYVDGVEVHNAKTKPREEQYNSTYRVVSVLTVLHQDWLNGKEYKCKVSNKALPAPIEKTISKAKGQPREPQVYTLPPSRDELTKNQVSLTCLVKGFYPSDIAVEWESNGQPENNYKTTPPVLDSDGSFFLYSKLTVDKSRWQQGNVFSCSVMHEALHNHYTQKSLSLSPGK

Question: Which results are given for “chimeric L3D10 anti-human CTLA-4 antibody”?
Answer: OD450 [1]: 0.18 OD450 and 0.169 OD450; OD450 [2]: 0.202 OD450 and 0.203 OD450; OD450 [3]: 0.375 OD450 and 0.317 OD450; OD450 [4]: 0.507 OD450 and 0.356 OD450; OD450 [5]: 1.23 OD450 and 1.24 OD450; OD450 [6]: 0.18 OD450 and 0.171 OD450; OD450 [7]: 1.43 OD450 and 1.52 OD450; OD450 [8]: 2.69 OD450 and 2.78 OD450; OD450 [9]: 0.157 OD450; OD450 [10]: 0.19 OD450 and 0.194 OD450; OD450 [11]: 0.469 OD450 and 0.333 OD450; OD450 [12]: 0.623 OD450 and 0.593 OD450; OD450 [13]: 0.817 OD450 and 0.563 OD450; OD450 [14]: 1.85 OD450 and 1.8 OD450; OD450 [15]: 1.24 OD450 and 1.88 OD450; OD450 [16]: 0.837 OD450 and 0.884 OD450; OD450 [17]: 1.27 OD450 and 1.45 OD450; OD450 [18]: 0.158 OD450 and 0.213 OD450; OD450 [19]: 0.201 OD450 and 0.182 OD450; OD450 [20]: 0.201 OD450 and 0.18 OD450; OD450 [21]: 1.71 OD450 and 1.8 OD450; OD450 [22]: 0.196 OD450 and 0.187 OD450; OD450 [23]: 0.179 OD450 and 0.166 OD450; OD450 [24]: 0.2 OD450 and 0.185 OD450; OD450 [25]: 0.189 OD450 and 0.176 OD450; OD450 [26]: 0.187 OD450 and 0.17 OD450; OD450 [27]: 0.179 OD450 and 0.166 OD450; OD450 [28]: 0.202 OD450 and 0.195 OD450; OD450 [29]: 3.51 OD450; OD450 [30]: 0.945 OD450 and 0.941 OD450; OD450 [31]: 2.89 OD450 and 2.91 OD450; OD450 [32]: 2.83 OD450 and 2.75 OD450; OD450 [33]: 3.33 OD450 and 3.3 OD450; OD450 [34]: 3.08 OD450 and 3.15 OD450; OD450 [35]: 3.41 OD450 and 3.54 OD450; OD450 [36]: 3.28 OD450 and 3.32 OD450; OD450 [37]: 3.3 OD450 and 3.35 OD450; OD450 [38]: 3.35 OD450 and 3.44 OD450; OD450 [39]: 1.12 OD450 and 1.18 OD450; OD450 [40]: 1.39 OD450 and 1.47 OD450; OD450 [41]: 0.942 OD450 and 0.94 OD450; OD450 [42]: 3.57 OD450 and 3.67 OD450; fold higher B7 blocking activity than 10D1 [43]: 1000 fold
